Publication PMC3924863 (Cancer research, 2013)

Experiments:
[1] = molecular target: recombinant monomeric cynomolgus monkey HER3 extracellular domain (cynomolgus monkey); experiment: solution equilibrium titration
[2] = molecular target: T1, recombinant monomeric human HER3 extracellular domain (human, UniProt P21860); experiment: solution equilibrium titration
[3] = molecular target: recombinant mouse HER3 extracellular domain (Mus musculus, UniProt Q61526); experiment: solution equilibrium titration
[4] = molecular target: recombinant monomeric rat HER3 extracellular domain (Rattus norvegicus, UniProt Q62799); experiment: solution equilibrium titration
[5] = molecular target: Fc-tagged EGFR extracellular domain (Homo sapiens (assumed), UniProt P00533); experiment: ELISA
[6] = molecular target: Fc-tagged HER2 extracellular domain (Homo sapiens (assumed), UniProt P04626); experiment: ELISA
[7] = molecular target: Fc-tagged HER4 extracellular domain (Homo sapiens (assumed), UniProt Q15303); experiment: ELISA
[8] = molecular target: isolated HER3 domains D3-4 (Homo sapiens, UniProt P21860); experiment: ELISA
[9] = molecular target: T1, recombinant monomeric human HER3 …; experiment: ELISA

Kd [1] [nM]	Kd [2] [nM]	Kd [3] [nM]	Kd [4] [nM]	binding result [5]	binding result [6]	binding result [7]	binding result [8]	binding result [9]	Binder
0.043	0.032	0.037	0.057	no binding	no binding	no binding	–	–	LJM716 (antibody, V domains shown) VH: EVQLLESGGGLVQPGGSLRLSCAASGFTFSSYAMSWVRQAPGKGLEWVSAINSQGKSTYYADSVKGRFTISRDNSKNTLYLQMNSLRAEDTAVYYCARWGDEGFDIWGQGTLVTVSS VL: DIQMTQSPSSLSASVGDRVTITCRASQGISNWLAWYQQKPGKAPKLLIYGASSLQSGVPSRFSGSGSGTDFTLTISSLQPEDFATYYCQQYSSFPTTFGQGTKVEIK
–	–	–	–	–	–	–	no binding	binds	MOR09825 Fab (Fab, V domains shown) VH: QVQLVESGGGLVQPGGSLRLSCAASGFTFSSYAMSWVRQAPGKGLEWVSAINSQGKSTYYADSVKGRFTISRDNSKNTLYLQMNSLRAEDTAVYYCARWGDEGFDIWGQGTLVTVSS VL: DIQMTQSPSSLSASVGDRVTITCRASQGISNWLAWYQQKPGKAPKLLIYGASSLQSGVPSRFSGSGSGTDFTLTISSLQPEDFAVYYCQQYSSFPTTFGQGTKVEIK
